These results are taken from the Human Domainome abundance scans (Beltran et al. 2025).

± gives the uncertainty stated by the source.

To fix the notation:
B1: Intersectin-2, residues 1129 to 1183; numbered along this chain, Q9NZM3 (parent)
chain: VCQVIAMYDYAANNEDELSFSKGQLINVMNKDDPDWWQGEINGVTGLFPSNYVKM

Variants of B1 are the subject of the series. Nature of the series: abundance fitness (aPCA) (normalised: wild type 0, dead -1); higher = more abundant; growth selection in yeast, the domain comes from the species named. Conditions: Homo sapiens.
As for VCQVIAMYDYAANNEDELPFSKGQLINVMNKDDPDWWQGEINGVTGLFPSNYVKM [S19P], the abundance fitness is -0.166 ± 0.032.

For VCQVIAMYDYAANNEDELRFSKGQLINVMNKDDPDWWQGEINGVTGLFPSNYVKM [S19R], the abundance fitness was -0.181 ± 0.033.

On to VCQVIAMYDYAANNEDELYFSKGQLINVMNKDDPDWWQGEINGVTGLFPSNYVKM [S19Y], for which the abundance fitness is -0.197 ± 0.04.

As for VCQVIAMYDYAANNEDYLSFSKGQLINVMNKDDPDWWQGEINGVTGLFPSNYVKM [E17Y], the abundance fitness turned out to be 0.064 ± 0.048.

VCQVIAMYDYAANNEDQLSFSKGQLINVMNKDDPDWWQGEINGVTGLFPSNYVKM [E17Q]: the abundance fitness is -0.042 ± 0.043.

As for VCQVIAMYDYAANNEDVLSFSKGQLINVMNKDDPDWWQGEINGVTGLFPSNYVKM [E17V], the abundance fitness is -0.145 ± 0.04.

Take VCQVIAMYDYAANNEDPLSFSKGQLINVMNKDDPDWWQGEINGVTGLFPSNYVKM [E17P]: the abundance fitness was -0.756 ± 0.12.

Regarding VCQVIAMYDYAANNEDCLSFSKGQLINVMNKDDPDWWQGEINGVTGLFPSNYVKM [E17C], the abundance fitness was -0.105 ± 0.042.

As to VCQVIAMYDYAANNEDHLSFSKGQLINVMNKDDPDWWQGEINGVTGLFPSNYVKM [E17H], the abundance fitness amounted to 0.048 ± 0.062.

With VCQVIAMYDYAANNEDWLSFSKGQLINVMNKDDPDWWQGEINGVTGLFPSNYVKM [E17W], the abundance fitness is -0.322 ± 0.054.

With VCQVIAMYDYAANNEDFLSFSKGQLINVMNKDDPDWWQGEINGVTGLFPSNYVKM [E17F], the abundance fitness was -0.11 ± 0.04.

On to VCQVIAMYDYAANNEDGLSFSKGQLINVMNKDDPDWWQGEINGVTGLFPSNYVKM [E17G], for which the abundance fitness was -0.039 ± 0.041.

In the case of VCQVIAMYDYAANNEDILSFSKGQLINVMNKDDPDWWQGEINGVTGLFPSNYVKM [E17I], the abundance fitness is -0.215 ± 0.072.

Regarding VCQVIAMYDYAANNEDMLSFSKGQLINVMNKDDPDWWQGEINGVTGLFPSNYVKM [E17M], the abundance fitness was -0.037 ± 0.044.

As to VCQVIAMYDYAANNEDRLSFSKGQLINVMNKDDPDWWQGEINGVTGLFPSNYVKM [E17R], the abundance fitness was -0.016 ± 0.03.

Turning to VCQVIAMYDYAANNEDDLSFSKGQLINVMNKDDPDWWQGEINGVTGLFPSNYVKM [E17D], the abundance fitness was -0.16 ± 0.043.

For VCQVIAMYDYAANNEDNLSFSKGQLINVMNKDDPDWWQGEINGVTGLFPSNYVKM [E17N], the abundance fitness is -0.271 ± 0.097.

On to VCQVIAMYDYAANNEDALSFSKGQLINVMNKDDPDWWQGEINGVTGLFPSNYVKM [E17A], for which the abundance fitness is -0.174 ± 0.04.

For the variant VCQVIAMYDYAANNEDLLSFSKGQLINVMNKDDPDWWQGEINGVTGLFPSNYVKM [E17L], the abundance fitness was -0.124 ± 0.03.

Regarding VCQVIAMYDYAANNEDTLSFSKGQLINVMNKDDPDWWQGEINGVTGLFPSNYVKM [E17T], the abundance fitness is -0.158 ± 0.049.

Take VCQVIAMYDYAANNEDKLSFSKGQLINVMNKDDPDWWQGEINGVTGLFPSNYVKM [E17K]: the abundance fitness is -0.089 ± 0.042.

Regarding VCQVIAMYDYAANNEDELSHSKGQLINVMNKDDPDWWQGEINGVTGLFPSNYVKM [F20H], the abundance fitness was -0.988 ± 0.21.

VCQVIAMYDYAANNEDELSASKGQLINVMNKDDPDWWQGEINGVTGLFPSNYVKM [F20A]: the abundance fitness was -0.998 ± 0.11.

For the variant VCQVIAMYDYAANNEDELSCSKGQLINVMNKDDPDWWQGEINGVTGLFPSNYVKM [F20C], the abundance fitness was -0.596 ± 0.099.

As to VCQVIAMYDYAANNEDELSDSKGQLINVMNKDDPDWWQGEINGVTGLFPSNYVKM [F20D], the abundance fitness is -1.03 ± 0.28.

In the case of VCQVIAMYDYAANNERELSFSKGQLINVMNKDDPDWWQGEINGVTGLFPSNYVKM [D16R], the abundance fitness turned out to be 0.001 ± 0.038.

As to VCQVIAMYDYAANNEKELSFSKGQLINVMNKDDPDWWQGEINGVTGLFPSNYVKM [D16K], the abundance fitness was 0.016 ± 0.035.

As for VCQVIAMYDYAANNEFELSFSKGQLINVMNKDDPDWWQGEINGVTGLFPSNYVKM [D16F], the abundance fitness was -0.04 ± 0.033.

With VCQVIAMYDYAANNECELSFSKGQLINVMNKDDPDWWQGEINGVTGLFPSNYVKM [D16C], the abundance fitness is -0.014 ± 0.057.

For VCQVIAMYDYAANNEPELSFSKGQLINVMNKDDPDWWQGEINGVTGLFPSNYVKM [D16P], the abundance fitness was -0.075 ± 0.058.

With VCQVIAMYDYAANNEIELSFSKGQLINVMNKDDPDWWQGEINGVTGLFPSNYVKM [D16I], the abundance fitness stood at 0.109 ± 0.061.

VCQVIAMYDYAANNEEELSFSKGQLINVMNKDDPDWWQGEINGVTGLFPSNYVKM [D16E]: the abundance fitness is -0.011 ± 0.057.

Take VCQVIAMYDYAANNEWELSFSKGQLINVMNKDDPDWWQGEINGVTGLFPSNYVKM [D16W]: the abundance fitness is -0.117 ± 0.038.

Turning to VCQVIAMYDYAANNEMELSFSKGQLINVMNKDDPDWWQGEINGVTGLFPSNYVKM [D16M], the abundance fitness was -0.066 ± 0.049.

On to VCQVIAMYDYAANNEHELSFSKGQLINVMNKDDPDWWQGEINGVTGLFPSNYVKM [D16H], for which the abundance fitness is -0.101 ± 0.057.

As to VCQVIAMYDYAANNEGELSFSKGQLINVMNKDDPDWWQGEINGVTGLFPSNYVKM [D16G], the abundance fitness was -0.02 ± 0.033.

With VCQVIAMYDYAANNESELSFSKGQLINVMNKDDPDWWQGEINGVTGLFPSNYVKM [D16S], the abundance fitness is -0.004 ± 0.033.

In the case of VCQVIAMYDYAANNEQELSFSKGQLINVMNKDDPDWWQGEINGVTGLFPSNYVKM [D16Q], the abundance fitness is -0.044 ± 0.039.

Regarding VCQVIAMYDYAANNEVELSFSKGQLINVMNKDDPDWWQGEINGVTGLFPSNYVKM [D16V], the abundance fitness was -0.082 ± 0.044.

VCQVIAMYDYAANNETELSFSKGQLINVMNKDDPDWWQGEINGVTGLFPSNYVKM [D16T]: the abundance fitness was -0.126 ± 0.055.

As for VCQVIAMYDYAANNEAELSFSKGQLINVMNKDDPDWWQGEINGVTGLFPSNYVKM [D16A], the abundance fitness amounted to 0.004 ± 0.041.

Consider VCQVIAMYDYAANNEYELSFSKGQLINVMNKDDPDWWQGEINGVTGLFPSNYVKM [D16Y], for which the abundance fitness turned out to be 0.047 ± 0.066.

Turning to VCQVIAMYDYAANNELELSFSKGQLINVMNKDDPDWWQGEINGVTGLFPSNYVKM [D16L], the abundance fitness is -0.034 ± 0.044.

With VCQVIAMYDYAANNENELSFSKGQLINVMNKDDPDWWQGEINGVTGLFPSNYVKM [D16N], the abundance fitness was -0.068 ± 0.065.

Regarding VCQVIAMYDYAANTEDELSFSKGQLINVMNKDDPDWWQGEINGVTGLFPSNYVKM [N14T], the abundance fitness is -0.001 ± 0.044.

For VCQVIAMYDYAANYEDELSFSKGQLINVMNKDDPDWWQGEINGVTGLFPSNYVKM [N14Y], the abundance fitness is -0.048 ± 0.065.

With VCQVIAMYDYAANWEDELSFSKGQLINVMNKDDPDWWQGEINGVTGLFPSNYVKM [N14W], the abundance fitness is -0.203 ± 0.039.

Take VCQVIAMYDYAANVEDELSFSKGQLINVMNKDDPDWWQGEINGVTGLFPSNYVKM [N14V]: the abundance fitness is -0.099 ± 0.043.
